Test results taken from the nanobody polyreactivity screen of Harvey et al. (2022).

Assay: yeast display, Sf9 membrane polyspecificity reagent, FACS + sequencing; frameworks hold sequencing errors
Method in brief: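 Galactose-induced (36–48 hours) yeast carrying a synthetic nanobody display library were exposed to 10% biotinylated, detergent-solubilized Sf9 membrane reagent at 4 °C for 1 hour. FACS followed streptavidin microbead enrichment, using low and high (top ~1%) gates for expression (anti-HA) and reagent binding (streptavidin). Colony PCR, MiSeq 2 × 250 sequencing and CDR-length filtering followed. Labels for polyreactivity reflect the gate of origin.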

Sequence	polyreactivity (PSR sort gate)
QVQLVESGRGLVQAGGSLRLSCAASGFTFRYYAMGWYRQAPGTERELVAAITYSGGGTYYADSVKGRFTISRDNANYTVYLQMNSLKPEDSAVYYCARRGRKAYAYWGQGTQVTVSS	high polyreactivity
QVQLVESGGGLVQAGGSLRLSCAASGLTFSYYAMGWYRQAPGKERELVAAISGRGSTYYADSVKGRFTISRDNAKNTVYLQMNSLKPEDTAVYYCNAYGRFGLYDYWGQGTQVTVSS	high polyreactivity
QVQLVESGGGLVQAGGSLRLSCAASGRTFRPYAMGWYRQAPGKEMELVAAIDSSGTSTYYADSVKGRFTISRDTAKNTVYLQMNSLKPEDTAVYYCAKAWPDHWYSRYDYWGQGTQLTVSS	low polyreactivity
QVQLVESGGGLVQAGRSLRLSCAASGRIFYGYAMGWYRQAPGRERELVAANTYIGGTYYADSVKGRFTISRDNAKNTVYLQMKSLKPEDTAVYYCATEPFYTYGYYTYPYWYDYWGQATQVTVSS	low polyreactivity
QVQLVESGGGLVQAGGSLRLRCAASGRTFYVYAMGWYRQAPGKERELVATNNTGGSTYYADSVKGRFTISRDNAKNTVYLQMNSLKPEDTAVYYCAARYNPYYIRFGFDKSFYYWGQGTQVTVSS	low polyreactivity
QVQLVESGGGLVQAGGSLRLSCAASGSTFRSYAMGWYRQAPGKEWELVAAISGDGSTNYADSVKGRFTISRDNAKNTVYLQMNSLKPEDTAVSYCAKDPGYPAPYYDYYYWGQGTQVTVSS	low polyreactivity
QVQLVESGGGLVQAGGSLRLSCAASGRIIRYYAMGWYRQAPGKEREFVATISSGGSTNYADSVKGRFTISRDNAKNTVYLQMNSLKPEDTAVYYCNRVYRRHVWGQGTQVTVSS	high polyreactivity
QVQLVESGRGLVQAGVSLRLSCAASGRIFTYYAMGWYRQAPGKERELVAAITTRGGRTRYADSVKGRFTISRDNAKITVYLQMNSLKPEDTAVYYCARGHSSVGPQYDYWGQGTQVTVSS	high polyreactivity
QVQLVESGGGLVQAGGSLRLSCAASGRTFPYNAMGWYRQAPGKERELVAAISSGGSTNYADSVKGRFTISRDNAKNTVYLQMNSLKPEDTAVYYCAVTGWPRYTWYSYGYWGQGTQVTVSS	low polyreactivity
QVQLVESGGGLVQAGGSLRLSCAASVIIYLDNAMVWYRQAPRKEMEMVADITSSGGSTYYADSVKGRFTISRDNAKNTVSLQMNSLKPEDTAVYYCAATRPSYNDAESDYWGQGTQVTVSS	low polyreactivity
QVQLVESGGGLVQAGGSLRLSCAASGRILHRYVMGWYIQAPGKERELVAAISSGGSTTYADSVKGRFTISRDNAKNTVYLQIYSLKPEDTAVYYCAKYSFWSTSRMDYWGQGTQVTVSS	low polyreactivity
QVQLVESGGGLVQAGGSLRLSCAASGRTFHYNVMGWYRQAPGKESELVAASTNTGGSTYYADSVKGRFTISRDNAKNTVYLQMNSLKPEDTAVYYCAAVIWGRRYGAYPYEYWGQGTQVTVSS	low polyreactivity
QVQLVDSGGGLVQAGGSLRLSSAASGFIFYEYAMGWYRQAPGKEMELVAAITSGGSTDYADSVKGRFSSSRDNAKNTVYLQMNCMKPDDTAVYYCNADLLTGYYWYKYWGQGTQVSVSS	low polyreactivity
QVQLVESGGGLVQSGGSLRLSCAASGRTFKYNAMGWYRQAPGKERELVAVIRYSGGTTYYADSVKGRFTISRDNAKNTVYLQMNSLKPEDTAVYYCAADSWSRSVNYYYWGQGTQVTVSS	low polyreactivity
QVQLVESGGGLVQAGGSLRLSCAASGRTFGNNAMGWSRPAPGKERELVAAITASGGRTYYADSVKGRFTISRDNAKTTVYLQMNSLKPEDTAVYYCADGGPRVNGYGGYYWGQGTQVTVSS	high polyreactivity
QVQLVESGGGLVQAGGSLRLSCAASGSTFYRNAMGWYRQAPGKEREFVAAISFRGGGTYADSVKGRFTISRDNAKNTVYLQMNSLKPEDTAVYYCAADHLSYRRRYEYWGLGTQVTVSS	low polyreactivity

Sequence	polyreactivity (PSR sort gate)
QVQLVESGGGLVQAGGSLRLSCAASRSTFYLNAMGWYRQAPGKERELVAAISSGGRTYYADSVKGRFTISRDNAKNTVYLQMNSLKPVDTAVYYCNAVRYLRGAYNYWGQGTQVTVSS	high polyreactivity
QGQLEESGGGLVQAGGSLRLSCAASGSLFPSYVMGWYRQAPGKERELVAAIRTSGDRTYYADSVKGRFTNSRDNAKNTVYLQMNCLKPEDTAVYYCAAPYGHKSPRMYYWGQGTQVTVSS	high polyreactivity
QVQLVETGGGVVQAGGSLRLSCAASGRTFGFNAMGWYIQAPGKERELVASITSTGGRTYYADSVKGLFTISRDNAKNTVYLQMNCLKPEDTAVYYCAAGSRSRAPYYRTIVDTYGYWGQGTQVTVSS	low polyreactivity
QVQLVESGGGLVQAGGSLRLSCAASGSIFVSYAMGWYSQAPGKERELVAVISYSGVSTYYADSVKGRFTISRDNAKNTVYLQINSLKPEDTAVYYCATRQYGTRHILKYNYWGQGTQVTVSS	low polyreactivity
QVQLVESGGGLVQAGGSLRLSCAASGLTFEYNAMGWYRQAPGKERELVATISNGGITSYADSVKGRFTISRDNAKNTVYLQMNSLKPEDTAVYYCAASYADSPTTDQLWLEYDSWGQGTQVTVSS	low polyreactivity
QVQLVESGGGLVQAGGSLRLSCAASGRIFWYYNMGRYRQAPGKERELVASINSDTGTYYADSVKGRFTISRDNAKNTVYLQMNSLKPEDTAVYYCTRDSESDANTFTTSGIDEPYDYWGQGTQVTVSS	low polyreactivity
QVQLVESGGGLVQAGGSLRLSCAASGRISFYYAMGWYRQAPGKERELVATISSSGGSTHYADSVKGRFTISRDNAKNTVYLQMNSLKPEDTAVYYCARDDSDRIWLEQSGYWGQGTQVTVSS	low polyreactivity
QVQLVESGGGLVQAGGSLRLSCAASGRTFRIYAVGWYIQAPGKERELVARITWSGGRTYYADSVKGRFTISRDNAKNTVYLQMNSLKPEDTAVYYCNAGGSWEFDYWGQGTQVTVSS	low polyreactivity
QVQLVESGGGLLQAGGSLRLSCAASGSIFSRYAMGWYRQAPGKERELVAAISKSGTRTYYADSVKGRFTISRDNAKNTVYLQMNSLKPEDTAVYYCNADSEISWYYPYEYWGQGTQVTVSS	high polyreactivity
QVQLVESGGGLVQAGGSLRLSCAASGSTLVYNDMGWYRQAPGKEREFVAAIRSNDGSTYYADSVKGRFTISRDNAKNTVYLQMNSLKPEDTAVYYCNKDVWDGYDWPEFDYWGQGTQVTVSS	low polyreactivity
QVQLVESGGGLVQAGGSLRLSCAASGRIFGYHARGWSRQAPGKERELVAAIDYTGGSTYYADSVKGRFTISRDNAKNTVYLQMNSLKPEETAVNYCAKDRTTPWEEDAYWGQGTQVTVSS	low polyreactivity
QVQLVESGRGLVQAGGSLRLRCAASGRNIRAYAMGCYRQAPGTERDLVAAITWSGGGTYYADSVKGRFTISRDNAKNTVYLQMTSLKPEDTAVYYCAAVTTLRPSWKRYYYWGQGTQVTVSS	high polyreactivity
QDQLVESGGGLVQAGGSLRLSCAASGSIFGKYTMGWYRQAPGKERELVAAISRSGSSTYYADSVKGRFTISRDNAKNTVYLQMNSLKPEDTAVYYCAAKFYYGVTSKFESWGQGTQVTVSS	high polyreactivity
QVHLVESGGGLVQAGGSLRLSCAASGNIFGVYAMGWYRQAPGKERELVAAISDSTYYADSVKGRFTISRDNAKNTVYLQMTSLKPEDTAVYYCAAAVLGRYSAGDGYWGQGPQVTVSS	low polyreactivity
QDQLVESGGGLVQAGGSLRLSCAASGFTFDRYAMGWYRQAPGKERELVAAITSSGGSTYYADSVKGRFTISRDNAKNTVYLQMNSLKPEDTAVYYCAVAYSSHTSYYSWGQSTQVTVSS	low polyreactivity
QVQLVESGGGLVQAGGSLRLSCAASGNILRFNAMGWYRQAPGKERELVAAISRSGGTTYYADSVKGRFTISRDNAKNTVYLQMNSLKPEDTAVYYCAARSRYGESPGYYWGQGTQVTVSS	high polyreactivity
